In US20050004351A1 one finds Max inhibition data, which are given here for one molecule.

Experiment in all cases: competitive ELISA
(In general: An ELISA detects its analyte on a solid surface through an enzyme-linked reagent.)

Assay [1] concerns the target affinity purified β2GPI-dependent antiphospholipid antibody from patient 7015.
For assay [2], the target named is affinity purified β2GPI-dependent antiphospholipid antibody from patient 6501.
Assay [3] deals with affinity purified β2GPI-dependent antiphospholipid antibody from patient 7101.
Assay [4] concerns the target affinity purified β2GPI-dependent antiphospholipid antibody from patient 6644.
Assay [5] addresses affinity purified β2GPI-dependent antiphospholipid antibody from patient 7008.
The target in assay [6] is affinity purified β2GPI-dependent antiphospholipid antibody from patient 6626.
Assay [7] deals with affinity purified β2GPI-dependent antiphospholipid antibody from patient 6701.
In assay [8] the target is affinity purified β2GPI-dependent antiphospholipid antibody from patient 6203.
The target in assay [9] is affinity purified β2GPI-dependent antiphospholipid antibody from patient 6509.
The target of assay [10] is affinity purified β2GPI-dependent antiphospholipid antibody from patient 6632.
Assay [11] concerns the target affinity purified β2GPI-dependent antiphospholipid antibody from patient 6652.
The target of assay [12] is affinity purified β2GPI-dependent antiphospholipid antibody from patient 7104.
Assay [13] deals with affinity purified β2GPI-dependent antiphospholipid antibody from patient 6641.

B1: recombinant human β2GPI domain 5, GlyHis6 (protein)
chain: GRASCKLPVKKATVVYQGERVKIQEKFKNGMLHGDKVSFFCKNKEKKCSYTEDAQCIDGTIEVPKCFKEHSSLAFWKTDASDVKPCGHHHHHH
As to B1, the Max inhibition in assay [1] worked out at 10%; in assay [2], 10%; in assay [3], 5%; in assay [4] it was 10%; in assay [5], 20%; in assay [6], 10%. The Max inhibition stood at 10% in assay [7]; 5% in assay [8]; 10% in assay [9]; 10% in assay [10]; 15% in [11]; 0% in assay [12]. The molecule also registered a Max inhibition in [13] of 10%.
